In test [1] the target is GABARAP (for ITC and NMR) (human) (UniProt O95166). The experiment in a line: ITC; peptide 0.4 mM titrated into 0.020 mM LC3/GABARAP protein in 26 steps, 25°C; 50 mM Na2HPO4, 100 mM NaCl, pH 7.0; one-site model.
Test [2] addresses LC3B (for ITC and NMR) (human) (UniProt Q9GZQ8). The test is described as above.

Chain of GABARAP (for ITC and NMR) (human) (O95166 whole entry): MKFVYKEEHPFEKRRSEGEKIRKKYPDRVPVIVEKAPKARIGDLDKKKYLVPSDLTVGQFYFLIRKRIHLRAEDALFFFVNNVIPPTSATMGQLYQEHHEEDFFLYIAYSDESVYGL

In general, Kd refers to the equilibrium constant for the complex coming apart. The low end stands for higher affinity, the high end for lower affinity. Usually stoichiometry N stands for the number of molecules, sites or subunits per partner or assembly. Turning to “PLEKHM1‐LIR VNV‐CIL peptide (ITC) (from UniProt Q9Y4G2 629-642)”, in test [1], the Ka came out at 1.13e+07 M⁻¹, the Kd is 0.09 µM, the dH was -9.2 kcal/mol and the stoichiometry N turned out to be 1.07. Further, in test [2], the Ka was found to be 3.03e+06 M⁻¹, the Kd came to 0.33 µM, the dH is -7.9 kcal/mol and the stoichiometry N came to 1.06.
Regarding “PLEKHM1‐LIR N637G peptide (ITC) (from UniProt Q9Y4G2 629-642)”, in test [1], the Ka came out at 130000 M⁻¹, the Kd came out at 7.75 µM, the dH is -6.7 kcal/mol and the stoichiometry N was found to be 1.17. Moreover, in test [2], the Ka is 20000 M⁻¹, the Kd turned out to be 50 µM and the dH was -1.4 kcal/mol.

Source of the values: paper PMC5538626, “Structural and functional analysis of the GABARAP interaction motif (GIM)” (EMBO Reports, 2017).
